Experimental data published in the supplement of paper PMC7877785.
± gives the uncertainty stated by the source.

Experiment: self-splicing fitness, log relative to wild type (ln ratio); higher = more splicing; Tetrahymena group I intron in knt gene, E. coli kanamycin selection, DiMSum; sequences stand for … in CUCUCU…GGAGGGAAAAGUUAUCAGGCAUGCACCUGGUAGCUAGUCUUUAAACCAAUAGAUUGCAUCGGUUUAAAAGGCAAGACCGUCAAAUUGCGGGAAAGGGGUCAACAGCCGUUCAGUACCAAGUCUCAGGGGAAACUUUGAGAUGGCCUUGCAAAGGGUAUGGUAAUAAGCUGACGGACAUGGUCCUAACCACGCAGCCAAGUCCUAAGUCAACAGAUCUUCUGUUGAUAUGGAUGCAGUUCACAGACUAAAUGUCGGUCGGGGAAGAUGUAUUCUUCUCAUAAGAUAUAGUCGGACCUCUCCUUAAUGGGAGCUAGCGGAUGAAGUGAUGCAACACUGGAGCCGCUGGGAACUAAUUUGUAUGCGAAAGUAUAUUGAUUAGUUUUGGAGUACUCGUGGUCG
Outline: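 DiMSum derived fitness as the error-weighted combination of fold changes across replicates, kanamycin versus no kanamycin, normalised to wild type. E. coli BL21(DE3) held the library, which randomised all eight P1ex-region intron nucleotides within the knt kanamycin-resistance gene on pET-22b(+). Six replicate transformations grew overnight at 37°C or 30°C on LB agar with or without 25 μg/mL kanamycin, also containing 100 μg/mL carbenicillin, 50 μM IPTG and 0.2% rhamnose, and pooled colonies were amplicon-sequenced on an Illumina HiSeq 2500.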

| Sequence | self-splicing fitness (ln) (30 °C) | self-splicing fitness (ln) (37 °C) |
| --- | --- | --- |
| CAUCAGCAAUAUUACGGUGG | -0.952 ± 0.045 | -0.393 ± 0.068 |
| CCAAAGCAAUAUUACGAAAC | -3.13 ± 0.2 | -2.95 ± 0.34 |
| GCAGAGCAAUAUUACGUGCC | -3.66 ± 0.3 | -2.94 ± 0.3 |
| AAGCAGCAAUAUUACGACCG | -1.19 ± 0.099 | -0.552 ± 0.15 |
| UCACAGCAAUAUUACGUAAC | -3.69 ± 0.12 | -2.79 ± 0.14 |
| CUAUAGCAAUAUUACGCACA | -2.35 ± 0.27 | -1.89 ± 0.25 |
| GUAGAGCAAUAUUACGAUAU | -0.731 ± 0.088 | 0.237 ± 0.12 |
| GAGUAGCAAUAUUACGUUUC | -2.82 ± 0.18 | -2.54 ± 0.27 |
| CUAGAGCAAUAUUACGGAUU |  | -3.03 ± 0.43 |
| UGACAGCAAUAUUACGGUCU | -1.58 ± 0.065 | -0.946 ± 0.072 |
| AAGGAGCAAUAUUACGUUGG | -4.4 ± 0.27 | -2.5 ± 0.25 |
| GGUCAGCAAUAUUACGAGCU | -0.647 ± 0.097 | -0.497 ± 0.12 |
| CUCCAGCAAUAUUACGUCUA | -4.32 ± 0.24 | -3.05 ± 0.18 |
| GGACAGCAAUAUUACGCGCA | -0.346 ± 0.061 | 0.497 ± 0.09 |
| GAGGAGCAAUAUUACGGUAC |  | -2.14 ± 0.26 |
| CACGAGCAAUAUUACGGAAA | -2.33 ± 0.22 | -1.8 ± 0.19 |
| GUGUAGCAAUAUUACGCUCU | -1.72 ± 0.23 | -0.839 ± 0.22 |
| GCCUAGCAAUAUUACGUCGU | -0.763 ± 0.068 | -0.337 ± 0.069 |
| CACAAGCAAUAUUACGUUCA | -1.31 ± 0.084 | -1.49 ± 0.089 |
| UUCCAGCAAUAUUACGAGUA | -1.12 ± 0.07 | 0.0282 ± 0.078 |
| CCUAAGCAAUAUUACGCGUC | -3.25 ± 0.16 | -1.95 ± 0.17 |
| CGGAAGCAAUAUUACGAGAA | -2.88 ± 0.48 | -2.03 ± 0.24 |
| UAUCAGCAAUAUUACGAUGU | -0.816 ± 0.072 | -0.0178 ± 0.11 |
| ACAAAGCAAUAUUACGUAGU | -2.57 ± 0.085 | -1.43 ± 0.095 |
| GUCUAGCAAUAUUACGCUAU | -1.54 ± 0.11 | -0.228 ± 0.1 |

| Sequence | self-splicing fitness (ln) (30 °C) | self-splicing fitness (ln) (37 °C) |
| --- | --- | --- |
| ACUAAGCAAUAUUACGGCAG | -1.71 ± 0.1 | -0.238 ± 0.11 |
| CGUAAGCAAUAUUACGCUGG | -1.56 ± 0.12 | -0.793 ± 0.11 |
| UUUCAGCAAUAUUACGGGCA | -0.321 ± 0.076 | -0.0917 ± 0.085 |
| AACUAGCAAUAUUACGGAGC | -1.86 ± 0.15 | -0.604 ± 0.15 |
| GGCAAGCAAUAUUACGCAAU | -1.03 ± 0.097 | 0.802 ± 0.11 |
| UUCUAGCAAUAUUACGUGCG | -1.98 ± 0.14 | -2.14 ± 0.13 |
| ACGGAGCAAUAUUACGCAGC | -3.02 ± 0.3 |  |
| GCUUAGCAAUAUUACGCGCC | -1.62 ± 0.45 |  |
| CUUGAGCAAUAUUACGCCAA | -3.52 ± 0.25 | -2.09 ± 0.32 |
| GUCGAGCAAUAUUACGCGCC | -2.74 ± 0.24 | -1.87 ± 0.42 |
| CGUGAGCAAUAUUACGUGGA | -3.06 ± 0.15 | -2.11 ± 0.14 |
| ACAAAGCAAUAUUACGGUUC | -3.12 ± 0.13 | -1.93 ± 0.17 |
| CAGCAGCAAUAUUACGCCAU | -3.12 ± 0.24 | -1.78 ± 0.21 |
| UACAAGCAAUAUUACGCGGC | -3.59 ± 0.24 | -2.91 ± 0.31 |
| GCUGAGCAAUAUUACGCUUG | -3.25 ± 0.29 | -1.57 ± 0.29 |
| GUUUAGCAAUAUUACGCUCG | -0.147 ± 0.15 | 0.0286 ± 0.21 |
| UGGUAGCAAUAUUACGGCUC | -0.912 ± 0.12 | -0.984 ± 0.14 |
| CGAAAGCAAUAUUACGGAGU | -3.55 ± 0.19 | -2.42 ± 0.17 |
| GACAAGCAAUAUUACGGCCG | -0.239 ± 0.14 | -0.53 ± 0.22 |
| AUCUAGCAAUAUUACGUAGC | -3.71 ± 0.35 | -1.84 ± 0.27 |
| ACGAAGCAAUAUUACGCACA | -0.494 ± 0.096 | -0.0286 ± 0.098 |
| GCUGAGCAAUAUUACGCCGG | -1.99 ± 0.36 |  |
| AGGUAGCAAUAUUACGAUCU | -0.913 ± 0.016 | -0.426 ± 0.034 |
| UCAAAGCAAUAUUACGCUGG | -3.55 ± 0.37 | -2.28 ± 0.33 |
